From patent US8642559

Assays:
[1] = biological target: GST fusion protein with mGluR1α Asn889 to Leu1058 fused to the C-terminus of GST (UniProt P23385)
[2] = biological target: myc-mGluR1α (mGluR1α tagged with a c-myc epitope inserted in frame after Ala30) (UniProt P23385)
[3] = biological target: GST fusion protein with mGluR1α Ile812 to Ser943 attached to the C-terminus of GST (UniProt P23385)
[4] = tested on: spectrin in brain membranes

Sequence of GST fusion protein with mGluR1α Ile812 to Ser943 attached to the C-terminus of GST (P23385 812-943): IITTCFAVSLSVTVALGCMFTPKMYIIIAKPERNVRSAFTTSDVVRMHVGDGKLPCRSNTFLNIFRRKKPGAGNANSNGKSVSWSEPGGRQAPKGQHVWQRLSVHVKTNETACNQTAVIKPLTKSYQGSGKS
Sequence of myc-mGluR1α (mGluR1α tagged with a c-myc epitope inserted in frame after Ala30) (P23385 other isoform, or with tags, fused parts or gaps): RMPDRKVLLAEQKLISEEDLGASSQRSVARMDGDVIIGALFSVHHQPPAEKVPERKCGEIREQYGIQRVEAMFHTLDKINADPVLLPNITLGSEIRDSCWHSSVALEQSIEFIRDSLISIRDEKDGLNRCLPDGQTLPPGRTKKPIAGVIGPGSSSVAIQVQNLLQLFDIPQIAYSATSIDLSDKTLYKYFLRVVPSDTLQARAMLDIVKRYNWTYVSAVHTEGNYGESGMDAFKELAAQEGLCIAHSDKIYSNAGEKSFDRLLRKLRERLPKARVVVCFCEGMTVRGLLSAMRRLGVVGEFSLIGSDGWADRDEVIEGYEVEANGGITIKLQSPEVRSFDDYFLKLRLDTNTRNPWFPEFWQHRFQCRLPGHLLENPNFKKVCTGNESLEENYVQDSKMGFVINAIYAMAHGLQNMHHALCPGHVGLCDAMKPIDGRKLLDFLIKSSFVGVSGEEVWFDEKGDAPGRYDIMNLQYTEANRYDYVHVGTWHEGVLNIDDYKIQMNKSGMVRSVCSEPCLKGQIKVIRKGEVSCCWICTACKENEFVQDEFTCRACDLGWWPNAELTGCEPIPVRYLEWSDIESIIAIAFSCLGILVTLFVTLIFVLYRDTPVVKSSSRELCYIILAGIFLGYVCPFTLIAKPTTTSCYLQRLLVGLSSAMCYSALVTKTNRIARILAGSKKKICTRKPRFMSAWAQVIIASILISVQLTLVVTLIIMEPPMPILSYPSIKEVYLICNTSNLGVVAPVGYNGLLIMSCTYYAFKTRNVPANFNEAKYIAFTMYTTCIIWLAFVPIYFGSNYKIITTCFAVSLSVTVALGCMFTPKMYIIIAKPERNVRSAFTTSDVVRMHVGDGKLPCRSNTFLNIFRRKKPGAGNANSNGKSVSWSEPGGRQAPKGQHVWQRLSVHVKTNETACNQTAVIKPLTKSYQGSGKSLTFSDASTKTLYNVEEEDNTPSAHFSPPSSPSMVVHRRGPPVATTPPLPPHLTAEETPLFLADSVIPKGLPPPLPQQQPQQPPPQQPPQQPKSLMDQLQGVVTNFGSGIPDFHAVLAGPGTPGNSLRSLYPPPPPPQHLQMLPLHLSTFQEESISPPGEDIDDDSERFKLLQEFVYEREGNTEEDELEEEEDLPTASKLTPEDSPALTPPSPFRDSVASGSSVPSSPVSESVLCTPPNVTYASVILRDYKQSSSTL
Sequence of GST fusion protein with mGluR1α Asn889 to Leu1058 fused to the C-terminus of GST (P23385 889-1058): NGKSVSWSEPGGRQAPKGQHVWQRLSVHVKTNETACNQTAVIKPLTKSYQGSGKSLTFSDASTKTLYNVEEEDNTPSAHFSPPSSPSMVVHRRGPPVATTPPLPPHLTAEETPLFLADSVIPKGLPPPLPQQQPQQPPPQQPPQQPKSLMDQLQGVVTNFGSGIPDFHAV

µ-calpain was tested, and the “digestion of the GST fusion protein with calpain, Edman sequencing” value [1] was “after digestion with calpain, this fusion protein generated a 10 kD fragment”, the “cleavage of immunoprecipitated myc-mGluR1α by µ-calpain (30 min), silver staining and Western blots” value [2] was “the density of the 145 kD band that represents the whole-length mGluR1α decreased dose-dependently with calpain treatment” and the “digestion of the purified GST fusion protein with calpain in the presence of 2 mM CaCl2” value [3] was “The GST-mGluR1α fusion protein became about 2 kD smaller after digestion”. The “truncation in brain membranes treated with purified calpain and calcium” value [4] was “truncation of both mGluR1 and spectrin was observed”.
